Literature values in article PMC8910669.

Target: SARS-CoV-2 spike RBD RBD (Severe acute respiratory syndrome coronavirus 2) (UniProt P0DTC2)

For hBD-2 (from UniProt O15263), which Kd is on record?
Its Kd is 300 nM.
